Test results taken from paper PMC6770826, “HDX and Native Mass Spectrometry Reveals the Different Structural Basis for Interaction of the Staphylococcal Pathogenicity Island Repressor Stl with Dimeric and Trimeric Phage dUTPases” (Biomolecules, 2019).

Assays:
[1] = biological target: φNM1 phage dUTPase (Staphylococcus aureus phage φNM1) (UniProt A0EWK2)
[2] = biological target: φNM1 phage dUTPase (Staphylococcus aureus phage φNM1) (UniProt A0EWK2); experiment: native MS; electrospray QTOF, positive ion mode; proteins at 40 μM in 5 mM NH4HCO3 pH 8.0
[3] = biological target: Stl repressor protein of S. aureus pathogenicity island SaPIbov1 (Staphylococcus aureus (pathogenicity island SaPIbov1)); experiment: cross-linking; disuccinimidyl suberate (DSS, 20 mM), 20 °C, 1 h; 20 μM each protein alone or 1:1 mixture (40 μM total); SDS-PAGE
[4] = biological target: φNM1 phage dUTPase (Staphylococcus aureus phage φNM1) (UniProt A0EWK2); experiment: as above
[5] = biological target: φNM1 phage dUTPase (Staphylococcus aureus phage φNM1) (UniProt A0EWK2); experiment: enzyme inhibition (steady-state dUTPase activity); DUTφNM1 with Stl at 0-300 nM, pre-incubated 5 min; 293 K; 1 mM HEPES-HCl pH 7.5, 5 mM MgCl2, 150 mM KCl, phenol red; quadratic binding equation fitted; apparent
[6] = biological target: the molecule itself; experiment: cross-linking; disuccinimidyl suberate (DSS, 20 mM), 20 °C, 1 h; 20 μM each protein alone or 1:1 mixture (40 μM total); SDS-PAGE

| Molecule | maximal inhibition of the steady-state dUTPase activity of DUTφNM1 by Stl (0-300 nM) [1] [%] | stoichiometry N (Stl per DUTφNM1) [2] | stoichiometry N [3] | stoichiometry N (Stl per DUTφNM1) [4] | Ki [5] [nM] | stoichiometry N [6] |
| --- | --- | --- | --- | --- | --- | --- |
| Stl repressor protein of S. aureus pathogenicity island SaPIbov1 (natural protein) | 40 | 1 | 2 | 1 | 34 | – |
| φNM1 phage dUTPase (enzyme, dUTPase of Staphylococcus aureus phage φNM1, Uniprot ID A0EWK2, residues 2-178; monomer mass 20976 Da printed; also called DUTφNM1; homodimeric φNM1 dUTPase; source: E. coli BL21 Rosetta (DE3), purified (glutathione-agarose, on-column thrombin cleavage); not shown: GST, N-terminal, cleaved) TNTLTIDQLQELLQIQKEFDDRIPTLNLRDSKIAYVVEFFEWFNTLETFKNWKKKPGKPLDVQLDELADMLAFGLSIANQVGVSSEEIKEAIESSFKDTEFHKMFNFKDKEFAQDAVVSTPQIIFKEFYPDQQAIVIVIDIAYNLYSIDQLIDAYKKKMKRNHERQDGTADAGKGYV | – | – | – | – | – | 2 |
